From the nanobody polyreactivity screen of Harvey et al. (2022) come the findings set out here.

A short description of this data set: yeast display, Sf9 membrane polyspecificity reagent, FACS + sequencing; frameworks hold sequencing errors. In a few lines:
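In a synthetic yeast display library (Saccharomyces cerevisiae BJ5465), nanobody expression was induced with galactose for 36–48 hours. FACS gates were set low and high (top ~1%) using anti-HA fluorescence for expression and streptavidin fluorescence for binding of the Sf9 membrane reagent. Each polyreactivity label is drawn from the gate of origin.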
Take “QVQLVESGGGLVQAGGSLRLSCAASGLTLRNYAMGWYRQAPGKERELVAAITTGGGRTYYADSVKGRFTISRDNAKNTVYLQMNSLKPEDTAVYYCAAERAILSSDKQSLWRFDYWGQGTQVTVSS”: the “polyreactivity (PSR sort gate)” value is given as “low polyreactivity”.
In the case of “QDQLVESGGGLVQAGGSLRLSFAAYGSTFIVYAMGWYRHAPGKERDLVAAISLDGGSTYYADSVKGRFTISLDNAKNNVYLQMNSLKPEDTAVYYCNADYYANSITYDSWGQGTQVTVSS”, the “polyreactivity (PSR sort gate)” value was “low polyreactivity”.
As for “QVQLVESGRGLVQAGGSLRLSCAASGIIFYENTMGWYRLAPGKERELVASISWSGGRTYNADSVKGRFTISRDNAKNTVDLQMNSLKPEDTAVYYCAGRPYYLYIYNFWGQGTQVTVSS”, the “polyreactivity (PSR sort gate)” value is “high polyreactivity”.
As to “EEELVESGGGLVQAGGSLRLSCAASGSIFYYNAMGWYRQAPGKERELVAAISRGGTTNYADSVKGRFTISRDNAKNTVYLQMNSLKPEDTAVYYCAAKAYDYYGPVYYWGQGTQVTVSS”, the “polyreactivity (PSR sort gate)” value was “high polyreactivity”.
As to “QVQLVESGGGLVQAGGSLRLSCAASGSTFSRYAMGWYRQAPGKERELVAAISYSGDSTYYADSVKGRFTISRDNAKNTVYLQMNSLKPEDTAVYYCNVYSHYRGYYWGQGTQVTVSS”, the “polyreactivity (PSR sort gate)” value is reported as “high polyreactivity”.
As for “QVQLVESGGGLVQAGGSLRLSCAASGFTFNQNAMGWYRQAPGKERELVAAISASGGSTYYADSVKGRFTISRDNAKNTVYLQMNSLKPEDTAVYYCAARGTYRYTKYNYWGQGTQVTVSS”, the “polyreactivity (PSR sort gate)” value was “high polyreactivity”.
As to “QVQLVESGGGLVQAGGSLRLSCAASGSIFVYYAMGWYRQAPGKERELVAGISRTGGRTYYADSVKGRFTISRDNAKITVYLQMNSLKPEDTAVYYCAAVSYYKSYGEFDYWGQGTQVTVSS”, the “polyreactivity (PSR sort gate)” value was “high polyreactivity”.
Regarding “QVQLVESGGGLVQAGGSLRLSCAASGFIFQKYAMGWYRQAPGKERELVAAIRYDGGSTYYADSVKGRFTISRDNAKNTVYLQMNSLKPEDTAVYYCAAYGPRFLIYPPYRYNYWGQGTQVTVSS”, the “polyreactivity (PSR sort gate)” value is listed as “high polyreactivity”.
Take “QVQLVESGGGLVQAGGSLRLSCPAYGSIFIGNAMGWYRQAPGKERELVAVISKGGGRTYYADSVKGRFTISRDNAKNTVYLQMNSLKPEDTAVYYCNTRNPDSGDYWGQGTQVTVSS”: the “polyreactivity (PSR sort gate)” value is listed as “high polyreactivity”.
With “QVQLVESGGGLVQAGGSLRLSCAASGSTFRYYAMGWYRQAPGKERELVAAISRRGGSSYYADSVKGRFTISRDNAKKTVYLQMNSLKPEDTAVYYCNAAASTFTSWIRGPGVCYDYWGQGTQVTVSS”, the “polyreactivity (PSR sort gate)” value is recorded as “high polyreactivity”.
For “QVQLVESGGGLVQAGGSLRLSCAASGIIFTGNAMGWYIQAPGKERELVAAITSGDTTNYADSVKGRFTISRDNAKNTVYLQMNSLKPEDSAVYYCAKELQVRQAGDYWGQGTQVTVSS”, the “polyreactivity (PSR sort gate)” value is “low polyreactivity”.
As to “QVQLVESGGGLVQAGGSLRLSCAASGSTFSHYAMVWYRQAPGKERELVATITGTGVRTYYADSVKGRFTISRDNAKNTVYLQMNSLKPEDTAVSYCAVPPSKRGAQAQPWMDYWGQGTQVTVSS”, the “polyreactivity (PSR sort gate)” value was “low polyreactivity”.
As to “QVQLVESGGGLVQAGGSLRLSCAASGRTFWTNAMGWYRQAPGKERELVAAISWTTGSTNYADSVKGRFTISRDNAKNTVYLQMNSLKPEDTAVYYCAAQTYCTFHTYYYWGQGTQVTVSS”, the “polyreactivity (PSR sort gate)” value is “low polyreactivity”.
As for “QVQLLESGGGLVQAGGSLRLSCPASGRIFGSYAMRSYRKAPGKERDFVAAISRTGGSTYYADSVKGRFTISRDNAKNTVYLQFTSLKPEDTAVYYCAASYRWRFVRGYYWGQGTQVNVSS”, the “polyreactivity (PSR sort gate)” value is on record as “high polyreactivity”.
With “QFQLVESGGGIVQAGGSHRVICAASASTFARNAMGWYRQATGKESEFVATISSSGGRTYYADSVKGRFTISRDNAKNTVYLQMNSLKPEDTAVYYCAADYHIVWYEEYSWGQGTQVTVSS”, the “polyreactivity (PSR sort gate)” value is recorded as “high polyreactivity”.
Take “QVQLVESGGGLVQAGGSLRLSCAASGSTFRRYAMGWYRQAPGKERELVAAITGSGGRTYYADSVKGRFTISRDNAKNTVYLQMNSLKPEDTAVYYCAKDSYTRPRGYDYWGQGTQVTVSS”: the “polyreactivity (PSR sort gate)” value is reported as “high polyreactivity”.
For the sequence “QVQLVESGGGLVQAGGSLRLSCAASGRTFYANAMGWYRQAPGKERELVAAISSNGGSTYYADSVKGRFTISRDNAKNTVYLQMNSLKPEDTAVYYCAVVSRYKAWRKYDYWGQGTQVTVSS”, the “polyreactivity (PSR sort gate)” value is reported as “high polyreactivity”.
The same measure for “QFQLVESGGGLVQAGGSLRLSCAASGFTFRKYAMGWYRQAPGKERELVAAIRSTGRSNYADSVKGRFTISRDNAKNTVYFQMNSLKPVDTAVYYFNVDLTYYYYEVDYWGQGTQVTVSS”: “high polyreactivity”.
Turning to “QVQLVESGGGLVQAGGSLRLSCAASGRIFIYNAMGWYRQAPGKEREFVAAISSSGGSTYYADSVKGRFTISRDNAKNTVYLQMNSLKPEDTAVYYCAAGGWPYSGGLFFQPNYDYWGQGTQVTVSS”, the “polyreactivity (PSR sort gate)” value was “low polyreactivity”.
With “QVQLVESGGGLVQAGGSLRLSCAASGSIFRFNAMGWYRQAPGKERELVAAISASGGSTYYADSVKGRFTISRDNAKNTVYLQMNSLKPEDTAVYYCAARRTAGAYYGYNYWGQGTQVTVSS”, the “polyreactivity (PSR sort gate)” value is on record as “high polyreactivity”.
With “QVQLVESGGGKVQEGGSLRISCAASGSIFITYAMGWYRQAPGKERELVAAIRDSGDRTYYADSVKGRFTISRDNAKNTVYFQMNSLKPEDTAVYYCNARCQEPLKYDYWGQGTQVIVSS” the entry was “low polyreactivity”; with “QVQLVESGGGLVQAGGRLRLSCAASGRTFGVYVMGWYRQAPGKERELVAAISSSGGLTYYADSVKGRFTISRDNAKNTVYLQMNSMKPEDTAVYYCNAVRRREERDGPPNPMDYWGQGTQVTVSS”, “high polyreactivity”.
As for “QVQLVESGGGLVQAGGSLRLSCAASGSIFVTNAMAWYSQAPGKERELVAAISWRGGSTYYADSVKGRFTISRDNAKNTVYLQMNSLKPEDTAVYYCNTYHPYWGSGFDYWGQGTEVTVSS”, the “polyreactivity (PSR sort gate)” value is reported as “low polyreactivity”.
As for “QVQLVETGGGLVQAGGSLRLSCAASGPTFYANAKGWYRQAPGKERELVAVISWGSGSTYYADSVKGRFTISRDNAKNTVYLQMNSLKPEDTAVYYCAKSFYYEGTGDYWGQGTQVTVSS”, the “polyreactivity (PSR sort gate)” value is “low polyreactivity”.
As for “QVQLVESGGVLVQAGGSLRLSCAASGRIFLRNVMGWYRQAPGKERELVAAISSSGGRTYYADSVKGRFTISRDNAKNSVYLQMNSLKPEDTAVYYCANLSSSRLPSEMEYWGQGTQVTVSS”, the “polyreactivity (PSR sort gate)” value is on record as “high polyreactivity”.
“QVQLVESGGGLVQAGGSLRLICAASGRIFRGNVMGWYRQAPGKERELDAAISSGGRTYYADSVKGRFTISRDNAKNTVYLQMNSLKPEDSAVYYCAKAFREGEGKFDYWGQGTQVTVSS”: the “polyreactivity (PSR sort gate)” value is listed as “high polyreactivity”.
On to “QVQLVESGGGLVQAGGSLRLSCAASGSIFAYYAMGWYRQAPGKEREFVARITYSTDGTYYADSVKGRFTISRDNAKNTVYLQMNSLKPEDTAVYYCAVDTWWGFKRYKFDYWGQGTQVTVSS”, for which the “polyreactivity (PSR sort gate)” value is given as “low polyreactivity”.
As for “QVQLVESGGGLVQAGGSLRLSCAASGSTFYPYAMGWYRQAPGKERELVAGISWSGGSTYYADSVKGRFTISRDNAKNTVYLQMNSLKPEDTAVYSCAVDVYWSVIYDYWGQGTQVTVSS”, the “polyreactivity (PSR sort gate)” value is reported as “low polyreactivity”.
For the sequence “QVQLVESGGGLVQAGGSLRLSCAASGSIFVPYAMGWYRQAPWKERELVAAISRGGDTNYADSVKGRFTISRDKAKNTVYLQMNSLIPEDTAVSYCNRARHQYSRWHGGYYYWGQCTQVTVSS”, the “polyreactivity (PSR sort gate)” value is “low polyreactivity”.
Turning to “QVQLVESGGGLVQAGGSLRLSCAASGRIFYSNAMGWYRQAPGKERELVATITYYADSVKGRFTISRDNAKNTVYLQMNSLKPEDTSVYYCAAVYLYYSRSDLYDYWGQGTQVTVSS”, the “polyreactivity (PSR sort gate)” value is reported as “low polyreactivity”.
Regarding “QVQLVESGGGLVQAGGSLRLSCAASGFIFPGYTMGWYRQAPGKERELVAAISRGSSTYYADSVKRRFTISRDNAKNSVYLQMNSLKPEDTAVYYCAADYSYIYGFDYWGQGTQVTVSS”, the “polyreactivity (PSR sort gate)” value was “low polyreactivity”.
“QVQLVESGGGLVQAGGSLRLSCAASGRIFNSNTMGWYRQAPGKERELVAAIRGSGGSTYADSVKGRFTISRDNAKNTVYLQMNSLKPEDTAVYYCAASPRRWYTPDAVSTYRMYYWGQGTQVTVSS”: the “polyreactivity (PSR sort gate)” value is “high polyreactivity”.
For the sequence “QVQHVESGGGLVQAGGSLRLSCAASGRTVASYAMGWYRPAPGKERELVAVITRGGRTYYADSVKGRFTISRDNAKNTVYLQLNSLKPEDTAVYYCKAAYYSSSYLEDSWGHGTQVTVSS”, the “polyreactivity (PSR sort gate)” value is reported as “high polyreactivity”.
As for “QVQLVESGGGIVQAGGSLRLSCAASGSTFYVYAMGWYRQAPGKERELVAAITVRGGSTYYADSVKGRFTISRDNAKNTVYLQMNSLKPEDTSVDYCNAEGTYGYWRSYNYWGQGTQVTVSS”, the “polyreactivity (PSR sort gate)” value is on record as “high polyreactivity”.
Take “QVQLVESGVGLVQAGGSLRLSCAASGSIFLTYDMGWYRPAPGKERELVAAITGSGDSTYYADSVKGRFTISRDNAKNTVYLQMNSLKPEDTAVYYCNTLVGVDFWLVDYWGQGTQVTLSS”: the “polyreactivity (PSR sort gate)” value is “low polyreactivity”.
Turning to “QVQLVESGGGLVQAGGSLRLSCAASGSIFVWYDLGWSRQAPGKERELVATISLSGVSTYYADSVKGRFTISRDTAKNTVYLQMISLKPEDTAVYYCAADFVEQGVDDFWGQGSQVTVSS”, the “polyreactivity (PSR sort gate)” value was “low polyreactivity”.
With “QVQLVESGGGLVQAGGSLRLSCAASGSILRQYAMGWYRQAPGKERELVATITGDGSTNYADSVKGRFTISRDNAKNTVYLQMNSLKPEDTAVYYCAADQTYTYEYWGQGTQVTVSS” the entry was “low polyreactivity”.
Regarding “QVQLVESGGGLVQAGGSLRLSCAASGFTFVAYAMGWYRQAPGKERELVAAISRRGGTTYYADSVKGRFTISRDNAKNTVYLQMNSLKPEDTAVYYCNARGFPGKFGYWGQGTQVTVSS”, the “polyreactivity (PSR sort gate)” value is listed as “high polyreactivity”.
With “QVQLVESGGGLVQAGCSLRLICAASGFTFGRNAMGWYRQAPGKEREFVADISGSVGSTYYADSVKGRFTISRDNAKNTVYLQMNSLKPEDTAVYYCAADTLYTRWEFDYWGQGTLVTVSS”, the “polyreactivity (PSR sort gate)” value is on record as “high polyreactivity”.
As to “QVQLVESGAGLVQAGGSLRLSCAASGRTFSRNAMGWYRQPPGKERELVATISRGGGITFYADSVKGRYTISRDNAKNTVYLQMNSLKPEDTAVYYCNADVRYVGLRRIVDYWGQGTQVTVSS”, the “polyreactivity (PSR sort gate)” value was “high polyreactivity”.
With “QVQLVEAGRGLVHAGCSLRLSCASSGNIFANYSMGWYRQAPGKERELVAAIRWSASRTYYADSVKGRFTISRDNAMNTVYLQMNSLKPEDTAVYYCAATIDTLWDYYYDYWGQGSQVTVSS”, the “polyreactivity (PSR sort gate)” value is on record as “high polyreactivity”.
